According to patent US20190211098A1 (Genentech, published 2019):
Substitutions are numbered along the chain they refer to. In names and notes the source's numbering stands.

T1: Full length myc-DDK tagged PIANP, expressed on transfected 293T cells (human, UniProt Q8IYJ0 32-282)
T1 construct: Bought construct (Origene Cat. No. RC207868); also called myc-PIANP; C12orf53 (human); not shown: myc-DDK tag of the Origene construct RC207868
T1 sequence: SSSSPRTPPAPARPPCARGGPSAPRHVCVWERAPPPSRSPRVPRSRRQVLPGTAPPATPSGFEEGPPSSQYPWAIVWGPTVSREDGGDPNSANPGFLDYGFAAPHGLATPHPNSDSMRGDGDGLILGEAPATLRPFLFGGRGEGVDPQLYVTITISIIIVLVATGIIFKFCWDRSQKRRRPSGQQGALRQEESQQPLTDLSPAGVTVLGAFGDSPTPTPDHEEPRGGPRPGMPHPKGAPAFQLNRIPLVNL

B1: Isotype control antibody 12D4 (antibody, mouse IgG2a, kappa, V domains shown)
VH: QVQLQQSGAELVTPGASVKLSCKTSGHTFTSYWMNWVNQKPGQGLEWIGWIYGGSGNTKYNQKFQGKATLTVDTSSSTAYMELRSLTSDDSAVYFCASGTNFFDYWGQGTMVTVSS
VL: DIVMTQSHKFMSTSVGDRVSITCKASQDVSTAVAWYQQKPGQSPKLLIYSASYRYTGVPDRFTGSGSGTDFTFTISSVQAEDLAVYYCQQHYSTPLTFGAGTKLELKR
B2: NPDC1 extracellular domain (1-190 aa) fused to murine IgG2a Fc (Fc fusion)
chain: GHPDVAACPGSLDCALKRRARCPPGAHACGPCLQPFQEDQQGLCVPRMRRPPGGGRPQPRLEDEIDFLAQELARKESGHSTPPLPKDRQRLPEPATLGFSARGQGLELGLPSTPGTPTPTPHTSLGSPVSSDPVHMSPLEPRGGQGDGLALVLILA
notes: also called NPDC1-mFc; NPDC1-mFC; not shown: Fc region of murine IgG2a, C-terminal tag
B3: Anti-mouse PILRA antibody 12H1.8 (antibody, mouse IgG2a, kappa, V domains shown)
VH: QVQLQQSGAELVGPGTSVKISCQASGYTFTNYWIGWAKQRPGHGLEWIGDIYPGGGYTNYNKKFKGKATLTADKSSSTAYMQFSSLTSEDSAIYYCSRSRGHGSNFYWYFDVWGTGTTVTVSS
VL: DIVMTQSPKFMSTSVGDRVNITCRASQDVNTAVAWFQQKPGRSPKLLIYSASYRYTGPDHFTGSGSGTDFTFTISSVQAEDLAVYYCQQHYTTPLTFGAGTKLEIKR
B4: PILRA A140 variant (Q140A) extracellular domain fused to murine IgG2a Fc (Fc fusion)
chain: QPSGSTGSGPSYLYGVTQPKHLSASMGGSVEIPFSFYYPWELATAPDVRISWRRGHFHGQSFYSTRPPSIHKDYVNRLFLNWTEGQKSGFLRISNLQKQDQSVYFCRVELDTRSSGRQQWASIEGTKLSITQAVTTTTQRPSSMTTTWRLSSTTTTTGLRVTQGKRRSDSWHISLET
notes: also called PILRA-mFc A140; PILRA-Fc A140; not shown: Fc region of murine IgG2a, C-terminal tag
B5: Mouse PILRA ligand C12orf53 fused to human IgG1 Fc (Fc fusion)
chain: SSHRSPPAPARPPCVRGGPSAPRHVCVWERAPPPSRSPRVPRSRRQVVPGTAPPATPSGFEEGPPSSQYPWAIVWGPTVSREDGGDPNSVNPGFLPLDYGFAAPHGLATPHPNSDSMRDDGDGLILGETPATLRPFLFGGRGEGVDP
notes: also called C12orf53-Fc; mouse C12orf53-Fc; not shown: human IgG1 Fc
B6: NPDC1-His (ligand)
chain: GHPDVAACPGSLDCALKRRARCPPGAHACGPCLQPFQEDQQGLCVPRMRRPPGGGRPQPRLEDEIDFLAQELARKESGHSTPPLPKDRQRLPEPATLGFSARGQGLELGLPSTPGTPTPTPHTSLGSPVSSDPVHMSPLEPRGGQGD
notes: not shown: His tag
B7: PILRA G80 variant extracellular domain fused to murine IgG2a Fc (Fc fusion)
chain: B4 chain with S61G, A121Q
notes: also called PILRA-mFc G80; not shown: Fc region of murine IgG2a, C-terminal tag
B8: PILRA R78 variant extracellular domain fused to murine IgG2a Fc (Fc fusion)
chain: B4 chain with G59R, A121Q
notes: also called PILRA-mFc R78; PILRA-Fc R78; not shown: Fc region of murine IgG2a, C-terminal tag
B9: Anti-mouse PILRA antibody 12C6.9 (antibody, mouse IgG2a, kappa, V domains shown)
VH: QIQLVQSGPELKKPGETVKISCKASGYTFTTYGMSWMKQAPGKGLKWMGWINTYSGVPTYADDFKGRFAFSLETSASTAYLQISNLKDEDTARYFCARRDYGSSQWYFDVWSTGTTVTVSS
VL: DIVMTQSPKFMSISVGDRVSVTCKASQNVGTKVAWYQQKPGQSPKELIYSASYRFSGVPDRFTGSGSGTDFTLTISSVQSEDLAEYFCQQYNTYPLTFGAGTKLEIKR

Experiments:
[1] = target: T2, Mouse PILRA extracellular domain fused to human CD3 zeta chain transmembrane and intracellular domains, on … (mouse; human); test: cell-based competitive ELISA: 293-PILRA stable cells, antibody titrated together with a fixed amount of mouse CD99-Fc
T2 construct: domain: transmembrane and intracellular domains; also called cell surface PILRA
T2 sequence (P20963 other isoform, or with tags, fused parts or gaps limits assumed): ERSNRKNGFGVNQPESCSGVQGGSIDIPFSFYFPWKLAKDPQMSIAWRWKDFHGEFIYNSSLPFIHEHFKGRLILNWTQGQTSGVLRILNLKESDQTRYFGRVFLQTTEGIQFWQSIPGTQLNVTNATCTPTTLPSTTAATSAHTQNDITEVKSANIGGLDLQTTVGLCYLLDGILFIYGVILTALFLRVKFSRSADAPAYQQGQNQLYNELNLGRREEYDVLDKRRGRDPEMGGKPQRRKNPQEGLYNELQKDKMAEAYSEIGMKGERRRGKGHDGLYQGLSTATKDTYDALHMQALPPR

[2] = target: T3, Biotinylated mouse PILRA ECD (mouse, UniProt Q2YFS3 32-198, biotinylated (sites not given)); test: competitive ELISA: biotinylated mouse PILRA ECD on Neutravidin plate, antibody titrated together with a fixed amount of mouse CD99-Fc
T3 construct: Captured on Neutravidin plates; also called mPILRA; recombinant PILRA ECD
T3 sequence (Q2YFS3 32-198 limits assumed): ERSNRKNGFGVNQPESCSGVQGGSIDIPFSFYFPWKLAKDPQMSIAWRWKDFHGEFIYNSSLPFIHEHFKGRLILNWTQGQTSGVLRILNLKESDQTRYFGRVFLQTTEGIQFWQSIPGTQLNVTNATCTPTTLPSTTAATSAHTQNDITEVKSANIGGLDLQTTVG

[3] = target: T4, R78 variant of PILRA (AD-protective), full-length, on cells (human, UniProt Q9UKJ1 20-303); test: flow cytometry, soluble NPDC1-mIgG2a on PILRA-variant-transfected 293T cells
T4 construct: also called PILRA R78; rs1859788 variant
Protocol: (§1) Relative PILRA-ligand binding to PILRA variant transfected cells was performed as follows. […] Double positive cells were gated on the G78 sample and then the gates were overlaid on subsequent samples to maintain the same cell population throughout the experiment.

[4] = target: T5, A140 variant of PILRA (Q140A), full-length, expressed on transfected 293T cells (human, UniProt Q9UKJ1 20-303); test: as above
T5 construct: Point mutation put into the full-length G78 construct by site-directed mutagenesis
Protocol: as §1

[5] = target: T6, A141 variant of PILRA (S141A), full-length, expressed on transfected 293T cells (human, UniProt Q9UKJ1 20-303); test: as above
T6 construct: Point mutation put into the full-length G78 construct by site-directed mutagenesis
Protocol: as §1

[6] = target: T7, A72 variant of PILRA, full-length, expressed on transfected 293T cells (human, UniProt Q9UKJ1 20-303); test: flow cytometry, soluble NPDC1-mFc 50 ug/ml on PILRA-variant-transfected 293T cells
T7 construct: Point mutation put into the full-length G78 construct by site-directed mutagenesis; also called R72 substituted to alanine
Protocol: as §1
(§2) Cells were washed and NPDC1 and PILRA cell surface staining was assessed by flow cytometry using anti-mIgG2a-FITC and anti-PILRA antibodies, respectively. […] Binding of the G78 variant of PILRA to NPDC1 was considered 100%.

[7] = target: T8, A76 variant of PILRA, full-length, expressed on transfected 293T cells (human, UniProt Q9UKJ1 20-303); test: as above
T8 construct: Point mutation put into the full-length G78 construct by site-directed mutagenesis; also called F76 substituted to alanine
Protocol: as §1, §2

[8] = target: T4, R78 variant of PILRA (AD-protective), …; test: as above
Protocol: as §1, §2

[9] = target: T9, G80 variant of PILRA, full-length, expressed on transfected 293T cells (human, UniProt Q9UKJ1 20-303); test: as above
T9 construct: Point mutation put into the full-length G78 construct by site-directed mutagenesis; also called S80 substituted to glycine
Protocol: as §1, §2

[10] = target: T10, Murine PILRA-His (mouse, UniProt Q2YFS3 32-198); test: array SPR imaging, sandwich format: mAb 2 on the chip, murine PILRA-His 100 nM, then Fc-tagged ligand at 10 ug/ml; response normalised to the PILRA level
T10 construct: not shown: His tag
T10 sequence (Q2YFS3 32-198 limits assumed): as above

[11] = target: T2, Mouse PILRA extracellular domain fused …; test: cell-based competitive ELISA: 293-PILRA stable cells, antibody titrated together with a fixed amount of mouse CD99-Fc, bound ligand-Fc detected with anti-human IgG-Fc-HRP
Protocol: After plates were centrifuged at 1200 rpm for 5 min at 4° C., the supernatant was decanted and the mixture of the serially diluted antibody and the ligand-Fc was added. Plates were incubated at 4° C. for 1 h with gentle shaking. Cells were washed with ice-cold 0.1% BSA in PBS, pH 7.4 (wash buffer) by centrifuging the plate at 1200 rpm for 5 min at 4° C. and the cells were resuspended in 200 μl wash buffer. […] Plates were incubated at 4° C. for 1 hr with gentle shaking. Cells were washed with ice-cold wash buffer 4 times. Cells were resuspended in 100 μl of the substrate 3,3′,5,5′-tetramethyl benzidine (Moss Inc., TMBE-1000) and plates were incubated at room temperature for approximately 20 min for color development. The reaction was stopped by adding 1 M phosphoric acid. The absorbance was read at 450 nm using a microplate reader (Multiskan Ascent, Thermo Scientific, Waltham, Mass.). The titration curves were plotted using KaleidaGraph (Synerg Software, Reading, Pa.).

[12] = target: T3, Biotinylated mouse PILRA ECD; test: competitive ELISA: biotinylated mouse PILRA ECD on Neutravidin plate, antibody titrated together with a fixed amount of mouse CD99-Fc, bound ligand-Fc detected with anti-human IgG-Fc-HRP
Protocol: (§3) The PILRA ECD-based competitive ELISA was performed as follows. […] Plates were blocked with 0.5% bovine serum albumin, 15 ppm Proclin 300 (Supelco, Bellefonte, Pa.) in PBS (80 μl/well) at room temperature for 1 h and washed. Biotinylated mouse PILRA ECD at 0.25 μg/ml (Genentech, Inc.) in 0.5% bovine serum albumin, 0.05% polysorbate 20, 15 ppm Proclin 300 in PBS, pH 7.4 (assay buffer) was added to the plates. After 1.5 hrs incubation, plates were washed. […] The mixture of the serially diluted antibody and ligand-Fc was added to the plates at 25 μl/well. After a 2 hrs incubation, plates were washed. […] After a 1 hr incubation, plates were washed and the substrate 3,3′,5,5′-tetramethyl benzidine (Moss Inc., TMBE-1000) was added. The reaction was stopped by adding 1 M phosphoric acid. The absorbance was read at 450 nm using a microplate reader (Multiskan Ascent, Thermo Scientific, Waltham, Mass.). The titration curves were plotted using KaleidaGraph (Synerg Software, Reading, Pa.).

[13] = target: T3, Biotinylated mouse PILRA ECD; test: competitive ELISA: biotinylated mouse PILRA ECD on Neutravidin plate, antibody titrated together with a fixed amount of mouse C12orf53-Fc, bound ligand-Fc detected with anti-human IgG-Fc-HRP
Protocol: as §3

[14] = target: B2; test: SPR (ProteOn XPR36): PILRA-mFc A140 amine-coupled to a GLC chip, 100 nM NPDC1-mFc injected
Protocol: PILRA variant ligand binding Surface Plasmon Resonance (SPR) was performed as follows.
Next, the interaction of PILRA variants and ligands in vitro using surface plasmon resonance (SPR) was investigated.

[15] = target: B8; test: SPR, NPDC1-His binding to PILRA variant
[16] = target: B6; test: SPR, NPDC1-His binding to PILRA variant
[17] = target: T11, HSV-1 glycoprotein B, full length, expressed on transfected 293T cells (human herpes simplex virus type-1, UniProt P06437 31-904); test: flow cytometry: soluble PILRA-mFc variant (50 ug/ml) on HSV-1 gB-transfected 293T cells, FITC anti-mouse IgG2a; MFI as % of G78 (= 100 %)
T11 construct: Construct cloned from EF157316 (strain KOSc); also called HSV-1 gB; human herpesvirus 1 strain KOSc glycoprotein B (EF157316)

[18] = target: T1, Full length myc-DDK tagged PIANP, …; test: flow cytometry: soluble PILRA-mFc variant (50 ug/ml) on myc-PIANP-transfected 293T cells, FITC anti-mouse IgG2a; MFI as % of G78 (= 100 %)
Protocol: The percentage of mean fluorescence intensity (MFI) of PILRA-mFC binding on ligand-transfected cells relative to the G78 variant of PILRA binding for each experiment was calculated.
as §2

[19] = target: B6; test: SPR, NPDC1-His binding to PILRA variant; remark: listed apart in the source

## B1
[1]
  binding result: no binding (tested: 200 nM)
[2]
  binding result: no binding (tested: 200 nM)

## B2
[3]
  % of G78 binding: 44 % of G78
[4]
  % of G78 binding: 22 % of G78
[5]
  % of G78 binding: 117 % of G78
[6]
  % of G78 variant binding: ~20 % of G78 variant
[7]
  % of G78 variant binding: ~20 % of G78 variant
[8]
  % of G78 variant binding: ~35 % of G78 variant
[9]
  % of G78 variant binding: ~60 % of G78 variant
[10]
  binding result: binds

## B3
[11]
  IC50 (read off the curve): ~8 nM
[12]
  IC50 (read off the curve): ~4 nM
[13]
  IC50 (read off the curve): ~4 nM

## B4
[14]
  binding result: binds

## B5
[10]
  binding result: binds

## B6
[15]
  Kd: 76.5 nM
  kon: 6800 M⁻¹ s⁻¹

## B7
[16]
  Kd: 30 nM
  kon: 17000 M⁻¹ s⁻¹
[17]
  binding result: binds
[18]
  binding result: binds

## B8
[19]
  fold lower affinity than the G78 variant: ~4.5 fold
  fold lower kon than the G78 variant: ~3 fold
[17]
  binding result: binds
[18]
  binding result: binds

## B9
[12]
  IC50 (read off the curve): ~4 nM
[13]
  IC50 (read off the curve): ~3 nM
